According to publication PMC12365249:

Target: FOXA1 (UniProt P55317)
Experiment: endogenous co-IP with FOXA1 antibody
Conditions: reference: wild type; sites T603

Substance: MED15 (from UniProt Q96RN5) T603A knock-in
- binding against the reference: stronger
